Each block holds one binder with its values, some of them ahead of it.
B4: GST-prApe1(1–41) + Atg19 (complex, S. cerevisiae)
chain 1: MEEQREILEQLKKTLQMLTVEPSKNNQIANEEKEKKENENS
chain 2: MNNSKTNQQMNTSMGYPLTVYDECNKFQLIVPTLDANIMLWCIGQLSLLNDSNGCKHLFWQPNDKSNVRILLNNYDYGHLFKYLQCQRKCSVYIGEGTLKKYNLTISTSFDNFLDLTPSEEKESLCREDAHEDPVSPKAGSEEEISPNSTSNVVVSRECLDNFMKQLLKLEESLNKLELEQKVTNKEPNHRISGTIDIPEDRSELVNFFTELKTVKQLEDVFQRYHDYERLSQECDSKTEIASDHSKKETKIEVEPPNERSLQITMNQRDNSLYFQLFNNTNSVLAGNCKLKFTDAGDKPTTQIIDMGPHEIGIKEYKEYRYFPYALDLEAGSTIEIENQYGEVIFLGKYGSSPMINLRPPSRLSAESLQASQEPFYSFQIDTLPELDDSSIISTSISLSYDGDDNEKALTWEEL
notes: prApe1, S. cerevisiae, propeptide; Atg19, S. cerevisiae; formed beforehand on the beads; Atg19 as m17; also called cargo mimetic beads; source: purified proteins from E. coli, assembled on glutathione Sepharose beads and washed; not shown: GST, N-terminal, kept

Legend:
Conditions in all cases: both partners purified
[1] = target: B4; test: microscopy-based competition assay on beads; beads with GST-prApe1 propeptide (10 µM) and Atg19 (20 µM), Atg12~Atg5-Atg16-mCherry 5 µM; then GFP-Atg8 5 µM (1x) and 50 µM (10x) (Figure 3G)
[2] = target: T1, mCherry-Atg19 (S. cerevisiae, UniProt P35193 1-415); test: microscopy-based protein-protein interaction assay on beads; beads with GST-prApe1(1–45) at 5 µM, washed, Atg19 (wild type, mutant or mCherry-Atg19) 5 µM, washed, Atg12~Atg5-Atg16-meGFP 5 µM (Figure 3—figure supplement 2, Figure 6—figure supplement 1)
T1 construct: Atg19, S. cerevisiae; also called 6xHis-mCherry-Atg19; source: E. coli Rosetta pLysS, purified via a hexahistidine tag; not shown: mCherry, N-terminal, kept
T1 sequence (looked up): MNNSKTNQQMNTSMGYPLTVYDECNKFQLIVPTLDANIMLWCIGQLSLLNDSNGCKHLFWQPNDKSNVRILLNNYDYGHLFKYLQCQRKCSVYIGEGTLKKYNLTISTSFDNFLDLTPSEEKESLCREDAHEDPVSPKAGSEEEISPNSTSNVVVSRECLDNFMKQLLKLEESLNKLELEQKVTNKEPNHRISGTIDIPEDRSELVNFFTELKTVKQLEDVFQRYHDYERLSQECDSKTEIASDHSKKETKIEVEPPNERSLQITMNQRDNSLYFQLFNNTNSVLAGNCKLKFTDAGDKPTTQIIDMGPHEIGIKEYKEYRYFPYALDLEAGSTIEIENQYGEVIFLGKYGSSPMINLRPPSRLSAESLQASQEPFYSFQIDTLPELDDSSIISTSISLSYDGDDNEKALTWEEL

[3] = target: T2, Atg19 (S. cerevisiae, UniProt P35193 1-415); test: microscopy-based recruitment to cargo mimetic beads; beads with GST-prApe1(1–45) 25 µM, Atg19 15 µM, Atg12~Atg5-Atg16-mCherry 12.5 µM, washed after each step, with ATTO390-containing SUVs (Figure 6, Figure 6—figure supplement 2)
T2 construct: Atg19, S. cerevisiae; printed without a tag; also called Atg19 wild type
T2 sequence (looked up): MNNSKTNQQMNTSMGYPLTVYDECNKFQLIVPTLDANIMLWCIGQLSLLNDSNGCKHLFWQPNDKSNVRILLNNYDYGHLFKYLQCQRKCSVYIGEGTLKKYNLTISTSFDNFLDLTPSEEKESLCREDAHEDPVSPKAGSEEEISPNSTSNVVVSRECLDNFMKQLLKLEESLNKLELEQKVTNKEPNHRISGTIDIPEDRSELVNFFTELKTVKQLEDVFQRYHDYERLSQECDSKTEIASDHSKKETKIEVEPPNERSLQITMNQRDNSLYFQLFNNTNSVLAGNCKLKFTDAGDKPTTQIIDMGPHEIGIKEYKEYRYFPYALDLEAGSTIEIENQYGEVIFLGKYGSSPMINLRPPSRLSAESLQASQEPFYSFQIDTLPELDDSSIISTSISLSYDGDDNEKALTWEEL

[4] = target: T3, Atg12~Atg5-Atg16-meGFP complex (S. cerevisiae, UniProt P38316 1-186; Q12380 1-294; Q03818 1-150, conjugated to Atg5 (Atg12~Atg5 protein conjugate) | conjugated to Atg12); test: microscopy-based protein-protein interaction assay on beads; beads with GST-prApe1(1–45) at 5 µM, washed, Atg19 (wild type, mutant or mCherry-Atg19) 5 µM, washed, Atg12~Atg5-Atg16-meGFP 5 µM (Figure 3—figure supplement 2, Figure 6—figure supplement 1)
T3 construct: Atg12, S. cerevisiae; Atg5, S. cerevisiae; Atg16, S. cerevisiae; called -eGFP in one legend and -meGFP in the methods; also called Atg12~Atg5-Atg16-eGFP; source: E. coli Rosetta pLysS, purified; not shown: meGFP, C-terminal, kept; copies: + +
T3 sequence (looked up) 1: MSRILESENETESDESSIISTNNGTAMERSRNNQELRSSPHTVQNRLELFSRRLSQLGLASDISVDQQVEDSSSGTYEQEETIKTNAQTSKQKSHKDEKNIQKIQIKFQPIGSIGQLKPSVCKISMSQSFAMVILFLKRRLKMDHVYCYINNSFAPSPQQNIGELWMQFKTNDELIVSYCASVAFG
T3 sequence (looked up) 2: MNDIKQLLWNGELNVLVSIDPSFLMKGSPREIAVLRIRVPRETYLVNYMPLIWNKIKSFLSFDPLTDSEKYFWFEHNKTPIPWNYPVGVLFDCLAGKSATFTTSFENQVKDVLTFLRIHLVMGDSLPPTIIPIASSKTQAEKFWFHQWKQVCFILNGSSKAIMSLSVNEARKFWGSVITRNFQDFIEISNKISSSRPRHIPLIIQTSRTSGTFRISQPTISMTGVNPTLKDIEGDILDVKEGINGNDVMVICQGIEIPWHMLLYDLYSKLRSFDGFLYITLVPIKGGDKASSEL
T3 sequence (looked up) 3: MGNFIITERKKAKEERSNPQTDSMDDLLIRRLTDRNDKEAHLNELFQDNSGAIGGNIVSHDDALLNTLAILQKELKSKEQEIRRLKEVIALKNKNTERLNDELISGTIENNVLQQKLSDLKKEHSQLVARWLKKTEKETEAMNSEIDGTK

[5] = target: T4, Atg12~Atg5-Atg16-mCherry complex (S. cerevisiae, UniProt P38316 1-186; Q12380 1-294; Q03818 1-150, conjugated to Atg5 (Atg12~Atg5 protein conjugate) | conjugated to Atg12); test: microscopy-based recruitment to cargo mimetic beads; beads with GST-prApe1(1–45) 25 µM, Atg19 15 µM, Atg12~Atg5-Atg16-mCherry 12.5 µM, washed after each step, with ATTO390-containing SUVs (Figure 6, Figure 6—figure supplement 2)
T4 construct: Atg12, S. cerevisiae; Atg5, S. cerevisiae; Atg16, S. cerevisiae; also called Cx; source: E. coli Rosetta pLysS; Atg12~Atg5 conjugate mixed 1:1 with purified Atg16-mCherry, purified by size exclusion chromatography; not shown: His6, N-terminal, cleaved; mCherry, C-terminal, kept; copies: + +
T4 sequence (looked up) 1: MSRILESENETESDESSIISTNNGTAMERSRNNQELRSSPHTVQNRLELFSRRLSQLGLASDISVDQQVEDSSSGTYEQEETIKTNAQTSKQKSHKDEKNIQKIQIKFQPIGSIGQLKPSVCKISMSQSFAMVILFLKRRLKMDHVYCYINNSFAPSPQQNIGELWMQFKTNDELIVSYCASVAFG
T4 sequence (looked up) 2: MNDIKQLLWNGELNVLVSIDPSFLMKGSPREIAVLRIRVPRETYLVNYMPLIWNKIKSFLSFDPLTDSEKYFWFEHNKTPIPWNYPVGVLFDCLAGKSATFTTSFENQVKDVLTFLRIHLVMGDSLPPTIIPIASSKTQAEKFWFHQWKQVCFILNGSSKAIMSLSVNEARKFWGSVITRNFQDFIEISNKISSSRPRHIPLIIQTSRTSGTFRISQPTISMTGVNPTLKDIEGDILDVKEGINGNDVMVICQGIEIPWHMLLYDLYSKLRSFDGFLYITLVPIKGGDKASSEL
T4 sequence (looked up) 3: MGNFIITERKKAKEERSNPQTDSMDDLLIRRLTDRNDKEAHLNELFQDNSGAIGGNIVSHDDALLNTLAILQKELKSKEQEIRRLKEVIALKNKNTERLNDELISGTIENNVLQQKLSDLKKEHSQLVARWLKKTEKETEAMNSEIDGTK

[6] = target: T4, Atg12~Atg5-Atg16-mCherry complex; test: microscopy-based competition assay on beads; beads with GST-prApe1 propeptide (10 µM) and Atg19 (20 µM), Atg12~Atg5-Atg16-mCherry 5 µM; then GFP-Atg8 5 µM (1x) and 50 µM (10x) (Figure 3G)
[7] = target: T2, Atg19; test: microscopy-based protein-protein interaction assay on beads; beads with GST-prApe1(1–41) at 25 µM, washed, Atg19 15 µM, washed, Atg12~Atg5-Atg16-mCherry (wild type and mutants) 8.8 µM (Figure 5B, C)

binding result [4]: binds
binding result [5]: binds
B3: GST-prApe1(1–45) + Atg19 (complex, S. cerevisiae)
chain 1: MEEQREILEQLKKTLQMLTVEPSKNNQIANEEKEKKENENSWCIL
chain 2: MNNSKTNQQMNTSMGYPLTVYDECNKFQLIVPTLDANIMLWCIGQLSLLNDSNGCKHLFWQPNDKSNVRILLNNYDYGHLFKYLQCQRKCSVYIGEGTLKKYNLTISTSFDNFLDLTPSEEKESLCREDAHEDPVSPKAGSEEEISPNSTSNVVVSRECLDNFMKQLLKLEESLNKLELEQKVTNKEPNHRISGTIDIPEDRSELVNFFTELKTVKQLEDVFQRYHDYERLSQECDSKTEIASDHSKKETKIEVEPPNERSLQITMNQRDNSLYFQLFNNTNSVLAGNCKLKFTDAGDKPTTQIIDMGPHEIGIKEYKEYRYFPYALDLEAGSTIEIENQYGEVIFLGKYGSSPMINLRPPSRLSAESLQASQEPFYSFQIDTLPELDDSSIISTSISLSYDGDDNEKALTWEEL
notes: prApe1, S. cerevisiae, propeptide; Atg19, S. cerevisiae; formed beforehand on the beads; Atg19 as m17; source: purified proteins from E. coli, assembled on glutathione Sepharose beads and washed; not shown: GST, N-terminal, kept

binding result [7]: binds
B5: GST-prApe1(1–41) (domain or fragment, S. cerevisiae, UniProt P14904 1-41, looked up)
chain: MEEQREILEQLKKTLQMLTVEPSKNNQIANEEKEKKENENS
notes: prApe1, S. cerevisiae, propeptide; also called prApe1 propeptide; source: E. coli Rosetta pLysS, purified as a GST fusion protein; not shown: GST, N-terminal, kept

Second part, the binder before the results:

B1: GFP-Atg8∆R117 (natural protein, S. cerevisiae, UniProt P38182 1-116, looked up)
chain: MKSTFKSEYPFEKRKAESERIADRFKNRIPVICEKAEKSDIPEIDKRKYLVPADLTVGQFVYVIRKRIMLPPEKAIFIFVNDTLPPTAALMSAIYQEHKDKDGFLYVTYSGENTFG
notes: Atg8, S. cerevisiae, without its last residue R117; also called meGFP-Atg8∆R117; 6xHis-meGFP-Atg8∆R117; source: E. coli Rosetta pLysS, purified; not shown: meGFP, N-terminal, kept
binding result [1]: binds

B2: GST-prApe1(1–45) (domain or fragment, S. cerevisiae, UniProt P14904 1-45, looked up)
chain: MEEQREILEQLKKTLQMLTVEPSKNNQIANEEKEKKENENSWCIL
notes: prApe1 (precursor aminopeptidase 1), S. cerevisiae, propeptide; also called prApe1 propeptide; cargo mimetic beads; source: E. coli Rosetta pLysS, purified; not shown: GST, N-terminal, kept
binding result [2]: binds
binding result [3]: binds

Binder: B4
binding result [6]: binds

Source: paper PMC5148612, “Mechanism of cargo-directed Atg8 conjugation during selective autophagy” (eLife, 2016)
